Measurements reported in publication PMC4513230 (2015).

B1: eIF2∙GTP∙Met-tRNAi ternary complex (TC), wild-type eIF2 (complex)
chain 1: MSTSHCRFYENKYPEIDDIVMVNVQQIAEMGAYVKLLEYDNIEGMILLSELSRRRIRSIQKLIRVGKNDVAVVLRVDKEKGYIDLSKRRVSSEDIIKCEEKYQKSKTVHSILRYCAEKFQIPLEELYKTIAWPLSRKFGHAYEAFKLSIIDETVWEGIEPPSKDVLDELKNYISKRLTPQAVKIRADVEVSCFSYEGIDAIKDALKSAEDMSTEQMQVKVKLVAAPLYVLTTQALDKQKGIEQLESAIEKITEVITKYGGVCNITMPPKAVTATEDAELQALLESKELDNRSDSEDDEDESDDE
chain 2: MSSDLAAELGFDPALKKKKKTKKVIPDDFDAAVNGKENGSGDDLFAGLKKKKKKSKSVSADAEAEKEPTDDIAEALGELSLKKKKKKTKDSSVDAFEKELAKAGLDNVDAESKEGTPSANSSIQQEVGLPYSELLSRFFNILRTNNPELAGDRSGPKFRIPPPVCLRDGKKTIFSNIQDIAEKLHRSPEHLIQYLFAELGTSGSVDGQKRLVIKGKFQSKQMENVLRRYILEYVTCKTCKSINTELKREQSNRLFFMVCKSCGSTRSVSSIKTGFQATVGKRRRM
chain 3: MSDLQDQEPSIIINGNLEPVGEPDIVEETEVVAQETQETQDADKPKKKVAFTGLEEDGETEEEKRKREFEEGGGLPEQPLNPDFSKLNPLSAEIINRQATINIGTIGHVAHGKSTVVRAISGVQTVRFKDELERNITIKLGYANAKIYKCQEPTCPEPDCYRSFKSDKEISPKCQRPGCPGRYKLVRHVSFVDCPGHDILMSTMLSGAAVMDAALLLIAGNESCPQPQTSEHLAAIEIMKLKHVIILQNKVDLMREESALEHQKSILKFIRGTIADGAPIVPISAQLKYNIDAVNEFIVKTIPVPPRDFMISPRLIVIRSFDVNKPGAEIEDLKGGVAGGSILNGVFKLGDEIEIRPGIVTKDDKGKIQCKPIFSNIVSLFAEQNDLKFAVPGGLIGVGTKVDPTLCRADRLVGQVVGAKGHLPNIYTDIEINYFLLRRLLGVKTDGQKQAKVRKLEPNEVLMVNIGSTATGARVVAVKADMARLQLTSPACTEINEKIALSRRIEKHWRLIGWATIKKGTTLEPIA

Legend:
[1] = system: 40S ribosomal subunit, Rps5-E144R;eIF1;eIF1A;eIF2 WT; assay: EMSA kinetics (Kd = koff/kon); settings: methionylated; T7 transcript; 30 mM Hepes-KOH pH 7.4, 100 mM KOAc, 3 mM Mg(OAc)2, 2 mM DTT, 26°C; 1 nM [35S]-Met-tRNAi, 200-250 nM eIF2, 1 uM eIF1 and eIF1A, 100 uM GDPNP (Kd assays), mRNA …
[2] = system: 40S ribosomal subunit, Rps5-R148E;eIF1;eIF1A;eIF2 WT; assay: EMSA (native gel); settings: methionylated; T7 transcript; 30 mM Hepes-KOH pH 7.4, 100 mM KOAc, 3 mM Mg(OAc)2, 2 mM DTT, 26°C; 1 nM [35S]-Met-tRNAi, 200-250 nM eIF2, 1 uM eIF1 and eIF1A, 100 uM GDPNP (Kd assays), mRNA …
[3] = system: 40S ribosomal subunit, WT Rps5;eIF1;eIF1A;eIF2 WT; assay: EMSA (native gel); settings: methionylated; T7 transcript; 30 mM Hepes-KOH pH 7.4, 100 mM KOAc, 3 mM Mg(OAc)2, 2 mM DTT, 26°C; 1 nM [35S]-Met-tRNAi, 200-250 nM eIF2, 1 uM eIF1 and eIF1A, 100 uM GDPNP (Kd assays), mRNA …
[4] = system: 40S ribosomal subunit, Rps5-E144R;eIF1;eIF1A;eIF2 WT; assay: EMSA (native gel); settings: methionylated; T7 transcript; 30 mM Hepes-KOH pH 7.4, 100 mM KOAc, 3 mM Mg(OAc)2, 2 mM DTT, 26°C; 1 nM [35S]-Met-tRNAi, 200-250 nM eIF2, 1 uM eIF1 and eIF1A, 100 uM GDPNP (Kd assays), mRNA …
[5] = system: 40S ribosomal subunit, Rps5-R148E;eIF1;eIF1A;eIF2 WT; assay: EMSA kinetics (dissociation); settings: methionylated; T7 transcript; 30 mM Hepes-KOH pH 7.4, 100 mM KOAc, 3 mM Mg(OAc)2, 2 mM DTT, 26°C; 1 nM [35S]-Met-tRNAi, 200-250 nM eIF2, 1 uM eIF1 and eIF1A, 100 uM GDPNP (Kd assays), mRNA …
[6] = system: 40S ribosomal subunit, Rps5-R148E;eIF1;eIF1A;eIF2 with eIF2beta-S264Y (SUI3-2); assay: EMSA kinetics (dissociation); settings: methionylated; T7 transcript; 30 mM Hepes-KOH pH 7.4, 100 mM KOAc, 3 mM Mg(OAc)2, 2 mM DTT, 26°C; 1 nM [35S]-Met-tRNAi, 200-250 nM eIF2, 1 uM eIF1 and eIF1A, 100 uM GDPNP (Kd assays), mRNA …
[7] = system: 40S ribosomal subunit, WT Rps5;eIF1;eIF1A;eIF2 with eIF2beta-S264Y (SUI3-2); assay: EMSA kinetics (dissociation); settings: methionylated; T7 transcript; 30 mM Hepes-KOH pH 7.4, 100 mM KOAc, 3 mM Mg(OAc)2, 2 mM DTT, 26°C; 1 nM [35S]-Met-tRNAi, 200-250 nM eIF2, 1 uM eIF1 and eIF1A, 100 uM GDPNP (Kd assays), mRNA …
[8] = molecular target: 40S·eIF1·eIF1A complex assembled with Rps5-R148E mutant 40S subunits (yeast (S. cerevisiae), UniProt P26783 1-225; P32911 1-108; P38912 1-153, R148E)

| Kd [8] [nM] | Molecule | binding signal (fold lower affinity than WT 40S) [1] | Kd [2] [nM] | Kd [3] [nM] | Kd [4] [nM] | binding signal (fold higher koff than WT 40S) [5] | binding signal (fold higher koff than WT 40S) [6] | binding signal (fold lower koff than with WT eIF2) [7] |
| --- | --- | --- | --- | --- | --- | --- | --- | --- |
|  | initiator Met-tRNAi | 40 | < 1 | < 1 | < 1 | 2 | 4 | 3 |
| 101 | B1 |  |  |  |  |  |  |  |
